Measurements taken from PMC8849274 (Oncotarget, 2022).

How the values were obtained:
Format in all cases: in vivo
[1] = Small animal PET/CT imaging, BxPC-3 tumors; details: female, mouse, tumor (BxPC-3 xenograft), iv, total radioactivity, athymic nude mice bearing BxPC-3 tumors, 3.7 MBq i.v., without blocking, n = 3, read-out: SUVmax of tumors
Experimental: BxPC-3 cells (5 × 10^6) were inoculated in the right shoulder of female athymic nude mice 3–4 weeks before PET imaging sessions. All the experiments involving animals followed the Guidelines for Care and Use of Research Animals established by the Division of Comparative Medicine and the Animal Studies Committee of Washington University School of Medicine under protocol #20–0214. […] Mice were imaged with CT followed by static PET scans at 1, 4, and 24 h after tracer administration on an Inveon small animal PET/CT scanner (Siemens Medical Solutions, Malvern, PA, USA). Static images were collected for 20 min and reconstructed with the maximum a posteriori (MAP) reconstruction algorithm using the Inveon Reseach Workstation image display software (Siemens). Regions of interest (ROI) were selected based on co-registered anatomical CT images, and the associated radioactivity was measured using the Inveon software. The maximum standard uptake value (SUV) was calculated as the highest regional radioactivity concentration (nCi/cc) × animal weight (g)/decay-corrected amount of injected dose (nCi).

[2] = Biodistribution in mice bearing CaSki xenografts; details: female, athymic nude, mouse, iv, total radioactivity; for tissue uptake at 1 h: 1 h p.i.; for tissue uptake at 24 h: 24 h p.i.
Text: (§1) Animals were supplied by Charles River Laboratories (Wilmington, MA, USA), and were handled in compliance with the Guidelines for Care and Use of Research Animals established by the Division of Comparative Medicine and the Animal Studies Committee of Washington University School of Medicine under protocol #20–0214. Female athymic nude mice were inoculated on the right flank with 10 × 10^6 CaSki or 5 × 10^6 BxPC-3 cells. Tumors were allowed to grow until they approached approximately 100 mm^3 in volume. Radiolabeled peptides were diluted in saline to a dose of 0.37 MBq (10 μCi) per 100 μl. […] For blocking experiments, non-PEGylated peptide (100 μg in 100 μL saline) was injected ten minutes before radiotracer. Blood, lung, liver, spleen, kidney, muscle, heart, bone, and tumor were harvested. The amount of radioactivity in each organ was determined by gamma counting, and the percent injected dose per gram of tissue (% ID/g) was calculated.

[3] = Biodistribution in mice bearing BxPC-3 xenografts; details: female, athymic nude, mouse, iv, total radioactivity, BxPC-3 tumor-bearing mice; for tissue uptake at 1 h: 1 h p.i.; for tissue uptake at 24 h: 24 h p.i.
Text: as §1

CC(C)C[C@H](NC(=O)[C@H](CC(=O)O)NC(=O)CNC(=O)[C@H](CCCNC(=N)N)NC(=O)[C@H](CC(C)C)NC(=O)[C@H](CC(N)=O)NC(=O)[C@@H]1CCCN1C(=O)[C@@H](NC(=O)[C@H](C)NC(=O)[C@H](CC(N)=O)NC(=O)CCOCCOCCOCCOCCOCCOCCOCCOCCOCCOCCOCCOCCOCCOCCOCCOCCOCCOCCOCCOCCOCCOCCOCCOCCOCCOCCOCCOCCNC(=O)CN1CCN(CC(=O)O)Cc2cccc(n2)CN(CC(=O)O)CC1)C(C)C)C(=O)N[C@@H](CCC(N)=O)C(=O)N[C@H](C(=O)N[C@@H](CC(C)C)C(=O)N[C@@H](C)C(=O)N[C@@H](CCC(N)=O)C(=O)N[C@@H](CCCCN)C(=O)N[C@H](C(=O)N[C@@H](C)C(=O)N[C@@H](CCCNC(=N)N)C(=O)N[C@H](C(=O)NCCOCCOCCOCCOCCOCCOCCOCCOCCOCCOCCOCCOCCOCCOCCOCCOCCOCCOCCOCCOCCOCCOCCOCCOCCOCCOCCOCCOCCC(N)=O)[C@@H](C)O)C(C)C)C(C)C [[^64Cu]Cu-PCTA-(PEG28)2-A20FMDV2, metal not drawn]
SUV at 1 h ([1]; PET at 1 h): 0.46 ± 0.04 SUV
SUV at 4 h ([1]; PET at 4 h): 0.54 ± 0.05 SUV
SUV at 24 h ([1]; PET at 24 h): 0.74 ± 0.21 SUV
tissue uptake at 1 h ([2]; blood, CaSki tumor-bearing mice, 0.37 MBq i.v., gamma counting, mean, n = 4, read-out: Uptake in Blood): 0.54 %ID/g
tissue uptake at 24 h ([2]; blood, CaSki tumor-bearing mice, 0.37 MBq i.v., read-out: Radioactivity remaining in the blood): 0.53 ± 0.1 %ID/g
tissue uptake at 1 h ([2]; blood, CaSki tumor-bearing mice, non-PEGylated A20FMDV2 100 μg injected 10 min before radiotracer, read-out: Uptake in Blood, 1 h Block): 0.76 %ID/g
tissue uptake at 1 h ([2]; bone, CaSki tumor-bearing mice, 0.37 MBq i.v., gamma counting, mean, n = 4, read-out: Uptake in Bone): 0.54 %ID/g
tissue uptake at 1 h ([2]; bone, CaSki tumor-bearing mice, non-PEGylated A20FMDV2 100 μg injected 10 min before radiotracer, read-out: Uptake in Bone, 1 h Block): 0.39 %ID/g
tissue uptake at 1 h ([2]; heart, CaSki tumor-bearing mice, 0.37 MBq i.v., gamma counting, mean, n = 4, read-out: Uptake in Heart): 2.46 %ID/g
tissue uptake at 1 h ([2]; heart, CaSki tumor-bearing mice, non-PEGylated A20FMDV2 100 μg injected 10 min before radiotracer, read-out: Uptake in Heart, 1 h Block): 0.55 %ID/g
tissue uptake at 1 h ([2]; kidney, CaSki tumor-bearing mice, 0.37 MBq i.v., gamma counting, mean, n = 4, read-out: Uptake in Kidney): 114 ± 38.3 %ID/g
tissue uptake at 24 h ([2]; kidney, CaSki tumor-bearing mice, 0.37 MBq i.v., read-out: Uptake in Kidney): 24.4 ± 6.54 %ID/g
tissue uptake at 1 h ([2]; kidney, CaSki tumor-bearing mice, non-PEGylated A20FMDV2 100 μg injected 10 min before radiotracer, read-out: Uptake in Kidney, 1 h Block): 43.6 %ID/g
tissue uptake at 1 h ([2]; liver, CaSki tumor-bearing mice, 0.37 MBq i.v., gamma counting, mean, n = 4, read-out: Uptake in Liver): 6.81 %ID/g
tissue uptake at 1 h ([2]; liver, CaSki tumor-bearing mice, non-PEGylated A20FMDV2 100 μg injected 10 min before radiotracer, read-out: Uptake in Liver, 1 h Block): 3.04 %ID/g
tissue uptake at 1 h ([2]; lung, CaSki tumor-bearing mice, 0.37 MBq i.v., gamma counting, mean, n = 4, read-out: Uptake in Lung): 3.76 %ID/g
tissue uptake at 1 h ([2]; lung, CaSki tumor-bearing mice, non-PEGylated A20FMDV2 100 μg injected 10 min before radiotracer, read-out: Uptake in Lung, 1 h Block): 1.43 %ID/g
tissue uptake at 1 h ([2]; muscle, CaSki tumor-bearing mice, 0.37 MBq i.v., gamma counting, mean, n = 4, read-out: Uptake in Muscle): 1.23 %ID/g
tissue uptake at 1 h ([2]; muscle, CaSki tumor-bearing mice, non-PEGylated A20FMDV2 100 μg injected 10 min before radiotracer, read-out: Uptake in Muscle, 1 h Block): 0.43 %ID/g
tissue uptake at 1 h ([2]; spleen, CaSki tumor-bearing mice, 0.37 MBq i.v., gamma counting, mean, n = 4, read-out: Uptake in Spleen): 0.63 %ID/g
tissue uptake at 1 h ([2]; spleen, CaSki tumor-bearing mice, non-PEGylated A20FMDV2 100 μg injected 10 min before radiotracer, read-out: Uptake in Spleen, 1 h Block): 0.54 %ID/g
tissue uptake at 1 h ([2]; tumor (CaSki xenograft), 0.37 MBq i.v., gamma counting, mean, n = 4, read-out: Tumor Uptake): 1.63 ± 0.53 %ID/g
tissue uptake at 1 h ([2]; tumor (CaSki xenograft), non-PEGylated A20FMDV2 100 μg injected 10 min before radiotracer, read-out: Tumor uptake, 1 h Block): 0.67 ± 0.26 %ID/g
tissue uptake at 1 h ([3]; blood, 0.37 MBq i.v., gamma counting, mean, n = 4, read-out: Uptake in Blood): 0.27 %ID/g
tissue uptake at 1 h ([3]; blood, non-PEGylated A20FMDV2 100 μg injected 10 min before radiotracer, read-out: Uptake in Blood, 1 h Block): 0.27 %ID/g
tissue uptake at 1 h ([3]; bone, 0.37 MBq i.v., gamma counting, mean, n = 4, read-out: Uptake in Bone): 0.38 %ID/g
tissue uptake at 1 h ([3]; bone, non-PEGylated A20FMDV2 100 μg injected 10 min before radiotracer, read-out: Uptake in Bone, 1 h Block): 0.66 %ID/g
tissue uptake at 1 h ([3]; heart, 0.37 MBq i.v., gamma counting, mean, n = 4, read-out: Uptake in Heart): 1.9 %ID/g
tissue uptake at 1 h ([3]; heart, non-PEGylated A20FMDV2 100 μg injected 10 min before radiotracer, read-out: Uptake in Heart, 1 h Block): 0.27 %ID/g
tissue uptake at 1 h ([3]; 0.37 MBq i.v., gamma counting, mean, n = 4, read-out: Tumor Uptake): 3.86 ± 0.58 %ID/g
tissue uptake at 1 h ([3]; kidney, 0.37 MBq i.v., gamma counting, mean, n = 4, read-out: Uptake in Kidney): 105 ± 13.6 %ID/g
tissue uptake at 24 h ([3]; kidney, 0.37 MBq i.v., read-out: Uptake in Kidney): 28.6 ± 8.45 %ID/g
tissue uptake at 1 h ([3]; kidney, non-PEGylated A20FMDV2 100 μg injected 10 min before radiotracer, read-out: Uptake in Kidney, 1 h Block): 80.6 %ID/g
tissue uptake at 1 h ([3]; liver, 0.37 MBq i.v., gamma counting, mean, n = 4, read-out: Uptake in Liver): 1.94 %ID/g
tissue uptake at 1 h ([3]; liver, non-PEGylated A20FMDV2 100 μg injected 10 min before radiotracer, read-out: Uptake in Liver, 1 h Block): 1.68 %ID/g
tissue uptake at 1 h ([3]; lung, 0.37 MBq i.v., gamma counting, mean, n = 4, read-out: Uptake in Lung): 2.58 %ID/g
tissue uptake at 1 h ([3]; lung, non-PEGylated A20FMDV2 100 μg injected 10 min before radiotracer, read-out: Uptake in Lung, 1 h Block): 1.25 %ID/g
tissue uptake at 1 h ([3]; muscle, 0.37 MBq i.v., gamma counting, mean, n = 4, read-out: Uptake in Muscle): 1.13 %ID/g
tissue uptake at 1 h ([3]; muscle, non-PEGylated A20FMDV2 100 μg injected 10 min before radiotracer, read-out: Uptake in Muscle, 1 h Block): 0.28 %ID/g
tissue uptake at 1 h ([3]; spleen, 0.37 MBq i.v., gamma counting, mean, n = 4, read-out: Uptake in Spleen): 0.28 %ID/g
tissue uptake at 1 h ([3]; spleen, non-PEGylated A20FMDV2 100 μg injected 10 min before radiotracer, read-out: Uptake in Spleen, 1 h Block): 0.24 %ID/g
tissue uptake at 4 h ([3]; tumor (BxPC-3 xenograft), 0.37 MBq i.v., 4 h p.i.): 3.09 ± 0.77 %ID/g
tissue uptake at 24 h ([3]; tumor (BxPC-3 xenograft), 0.37 MBq i.v., read-out: Tumor Uptake): 2.45 ± 0.57 %ID/g
tissue uptake at 1 h ([3]; tumor (BxPC-3 xenograft), non-PEGylated A20FMDV2 100 μg injected 10 min before radiotracer, read-out: Tumor uptake, 1 h Block): 0.75 ± 0.09 %ID/g
